Measurements from the supplement of paper PMC10724198.
± gives the standard deviation of the averaged measurements.

Experiments:
Saccharomyces cerevisiae [1] = assay: protein stability index of tFT-peptide fusion (C-terminal peptide) (PSI (0-1 scale)); higher = more stable (slower turnover)
Procedure: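 MPS profiling in S. cerevisiae of the tFT-X12 degron library: putative degron peptides plus stable controls, 12 aa, fused to the C-terminus of a sfGFP-mCherry timer. Cells are FACS-sorted into 8 mCherry/sfGFP bins and deep-sequenced. PSI runs from 0 (unstable) to 1 (stable). Backgrounds are wild type, das1Δ and doa10Δ at 30 °C, and wild type, das1Δ, cdc34-1 and cdc53-1 at 37 °C; 2-3 technical replicates each.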

Saccharomyces cerevisiae [2] = assay: as above; details: genetic background: wild type; temperature: 30 C
[3] = genetic background: cdc34-1, temperature: 37 C
[4] = genetic background: cdc53-1, temperature: 37 C
[5] = genetic background: das1 deletion, temperature: 30 C
[6] = genetic background: das1 deletion, temperature: 37 C
[7] = genetic background: doa10 deletion, temperature: 30 C
[8] = genetic background: wild type, temperature: 30 C
[9] = genetic background: wild type, temperature: 37 C
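Note: PSI is a weighted mean of sequencing reads over stability bins, variants kept only with over 10 reads, mCherry proximal and sfGFP distal, peptide attached via GGGS linker.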

Row | Sequence | protein stability index (Saccharomyces cerevisiae [1]; [3]) | protein stability index (Saccharomyces cerevisiae [1]; [4]) | protein stability index (Saccharomyces cerevisiae [1]; [5]) | protein stability index (Saccharomyces cerevisiae [1]; [6]) | protein stability index (Saccharomyces cerevisiae [1]; [7]) | protein stability index (Saccharomyces cerevisiae [1]; [8]) | protein stability index (Saccharomyces cerevisiae [1]; [9]) | protein stability index (Saccharomyces cerevisiae [2])
1 | WRCECELASACA | 0.458 ± 0.015 | 0.473 ± 0.027 | 0.347 ± 0.037 | 0.508 ± 0.0082 | 0.31 ± 0.0062 | 0.361 ± 0.024 | 0.486 ± 0.0079 | 0.431 ± 0.013
2 | WRGALHPTPVAA | 0.285 ± 0.018 | 0.282 ± 0.0046 | 0.249 ± 0.035 | 0.419 ± 0.0075 | 0.198 ± 0.0084 | 0.253 ± 0.029 | 0.4 ± 0.017 | 0.339 ± 0.0086
3 | WSNICFWCGVWS | 0.685 ± 0.027 | 0.826 ± 0.011 | 0.673 ± 0.038 | 0.815 ± 0.033 | 0.356 ± 0.0059 | 0.39 ± 0.024 | 0.6615 ± 0.0049 | 0.458 ± 0.057
4 | WSWVFVVLRFGR | 0.485 ± 0.035 | 0.5367 ± 0.0019 | 0.405 ± 0.027 | 0.574 ± 0.017 | 0.412 ± 0.025 | 0.394 ± 0.024 | 0.562 ± 0.014 | 0.527 ± 0.048
5 | WVLFRLPYQFFS | 0.668 ± 0.048 | 0.707 ± 0.021 | 0.57 ± 0.038 | 0.737 ± 0.026 | 0.368 ± 0.0073 | 0.393 ± 0.022 | 0.633 ± 0.0017 | 0.436 ± 0.0098
6 | WWDCAVWVRCGG | 0.477 ± 0.026 | 0.471 ± 0.0077 | 0.382 ± 0.024 | 0.5379 ± 0.0022 | 0.407 ± 0.013 | 0.382 ± 0.019 | 0.516 ± 0.012 | 0.471 ± 0.015
7 | YCAMVAVGVVGG | 0.468 ± 0.037 | 0.506 ± 0.025 | 0.329 ± 0.021 | 0.503 ± 0.0096 | 0.306 ± 0.016 | 0.334 ± 0.018 | 0.493 ± 0.012 | 0.509 ± 0.03
8 | YCLSCLAKASLM | 0.495 ± 0.036 | 0.606 ± 0.0019 | 0.524 ± 0.021 | 0.5686 ± 0.0039 | 0.164 ± 0.0029 | 0.19 ± 0.0066 | 0.38 ± 0.011 | 0.28811 ± 0.00011
9 | YFCVELSVFGFF | 0.416 ± 0.018 | 0.546 ± 0.077 | 0.37 ± 0.046 | 0.48 ± 0.018 | 0.324 ± 0.02 | 0.358 ± 0.023 | 0.476 ± 0.033 | 0.4 ± 0.036
10 | YFFFLFFLLPPF | 0.453 ± 0.045 | 0.477 ± 0.025 | 0.408 ± 0.041 | 0.505 ± 0.0069 | 0.416 ± 0.007 | 0.356 ± 0.034 | 0.498 ± 0.0073 | 0.374 ± 0.029
11 | YGHLPLLVLFCV | 0.459 ± 0.013 | 0.509 ± 0.037 | 0.352 ± 0.035 | 0.541 ± 0.013 | 0.211 ± 0.0055 | 0.237 ± 0.023 | 0.399 ± 0.022 | 0.366 ± 0.049
12 | YHRKAILMCTFS | 0.506 ± 0.044 | 0.55 ± 0.011 | 0.443 ± 0.02 | 0.5702 ± 0.0011 | 0.3072 ± 0.00055 | 0.299 ± 0.017 | 0.461 ± 0.021 | 0.443 ± 0.078
13 | YIFLPIALVFFP | 0.435 ± 0.021 | 0.536 ± 0.014 | 0.304 ± 0.037 | 0.543 ± 0.022 | 0.333 ± 0.02 | 0.319 ± 0.014 | 0.488 ± 0.015 | 0.363 ± 0.083
14 | YLFFHMVVLVVV | 0.0358 ± 0.0027 | 0.0745 ± 0.0059 | 0.118 ± 0.043 | 0.182 ± 0.0041 | 0.0943 ± 0.019 | 0.105 ± 0.048 | 0.149 ± 0.019 | 0.157 ± 0.018
15 | YLGSLQVPVHLF | 0.676 ± 0.024 | 0.725 ± 0.062 | 0.639 ± 0.022 | 0.756 ± 0.011 | 0.226 ± 0.013 | 0.255 ± 0.019 | 0.455 ± 0.011 | 0.352 ± 0.011
16 | YMPKHKIQKLMQ | 0.701 ± 0.02 | 0.728 ± 0.032 | 0.639 ± 0.023 | 0.7635 ± 0.0046 | 0.425 ± 0.012 | 0.46 ± 0.023 | 0.607 ± 0.018 | 0.491 ± 0.067
17 | YMVSLSFTLVRS | 0.382 ± 0.038 | 0.454 ± 0.054 | 0.32 ± 0.022 | 0.474 ± 0.033 | 0.297 ± 0.024 | 0.333 ± 0.013 | 0.4552 ± 0.0036 | 0.481 ± 0.041
18 | YSGRYRTLVRCW | 0.291 ± 0.011 | 0.366 ± 0.039 | 0.265 ± 0.037 | 0.4426 ± 0.0032 | 0.199 ± 0.0059 | 0.236 ± 0.033 | 0.384 ± 0.02 | 0.33 ± 0.015
19 | YVCVVSVLLGLL | 0.25 ± 0.017 | 0.319 ± 0.029 | 0.24 ± 0.026 | 0.441 ± 0.0082 | 0.19367 ± 8.4e-05 | 0.226 ± 0.015 | 0.3823 ± 0.0025 | 0.31 ± 0.031
